Experimental data taken from patent US20240343811A1 (SHANDONG SIMCERE BIOPHARMACUTICAL, published 2024).

B1: VHH12-05 humanized VHH-Fc antibody (Fc fusion)
chain: EVQLVESGGGLVQPGGSLRLSCAASGITFSSYAMGWYRQAPGKQRELVAAINRFGLTNYVDSVKGRFTISRVNAKNSLYLQMNSLRAEDTAVYYCNTGGVYSHPDYYTGTYWGQGTMVTVSSEPKSSDKTHTCPPCPAPEEFGGPSVFLFPPKPKDTLMISRTPEVTCVVVAVSHEDPEVKFNWYVDGVEVHNAKTKPREEQYNSTYRVVSVLTVLHQDWLNGKEYKCKVSNKALPAPIEKTISKAKGQPREPQVYTLPPSREEMTKNQVSLTCLVKGFYPSDIAVEWESNGQPENNYKTTPPVLDSDGSFFLYSKLTVDKSRWQQGNVFSCSVMHEALHNHYTQKSLSLSPGK
B2: VHH12-06 humanized VHH-Fc antibody (Fc fusion)
chain: EVQLVESGGGLVQPGGSLRLSCAASGITFSSYAMGWYRQAPGKQRELVAAINRFGLTNYVDSVKGRFTISRDNAKNSVYLQMNSLRAEDTAVYYCNTGGVYSHPDYYTGTYWGQGTMVTVSSEPKSSDKTHTCPPCPAPEEFGGPSVFLFPPKPKDTLMISRTPEVTCVVVAVSHEDPEVKFNWYVDGVEVHNAKTKPREEQYNSTYRVVSVLTVLHQDWLNGKEYKCKVSNKALPAPIEKTISKAKGQPREPQVYTLPPSREEMTKNQVSLTCLVKGFYPSDIAVEWESNGQPENNYKTTPPVLDSDGSFFLYSKLTVDKSRWQQGNVFSCSVMHEALHNHYTQKSLSLSPGK
B3: VHH06-04 humanized VHH-Fc antibody (Fc fusion)
chain: EVQLVESGGGVVQPGGSLRLSCAASGSTWTTYAVRWYRQAPGKQREWVAFISVDGSTNYPDSVKGRFTISRDNSKNTVYLQMNSLRAEDTADYICRVGGQYWGQGTMVTVSSEPKSSDKTHTCPPCPAPEEFGGPSVFLFPPKPKDTLMISRTPEVTCVVVAVSHEDPEVKFNWYVDGVEVHNAKTKPREEQYNSTYRVVSVLTVLHQDWLNGKEYKCKVSNKALPAPIEKTISKAKGQPREPQVYTLPPSREEMTKNQVSLTCLVKGFYPSDIAVEWESNGQPENNYKTTPPVLDSDGSFFLYSKLTVDKSRWQQGNVFSCSVMHEALHNHYTQKSLSLSPGK
B4: VHH06-05 humanized VHH-Fc antibody (Fc fusion)
chain: EVQLVESGGGVVQPGGSLRLSCAASGSTWTTYAVRWYRQAPGKQREWVAFISVDGSTNYADSVKGRFTISRDNAKNTVYLQMNSLRAEDTADYICRVGGQYWGQGTMVTVSSEPKSSDKTHTCPPCPAPEEFGGPSVFLFPPKPKDTLMISRTPEVTCVVVAVSHEDPEVKFNWYVDGVEVHNAKTKPREEQYNSTYRVVSVLTVLHQDWLNGKEYKCKVSNKALPAPIEKTISKAKGQPREPQVYTLPPSREEMTKNQVSLTCLVKGFYPSDIAVEWESNGQPENNYKTTPPVLDSDGSFFLYSKLTVDKSRWQQGNVFSCSVMHEALHNHYTQKSLSLSPGK

Assays:
[1] = molecular target: T1, human CD16b (NA2), full length, on FlpinCHO cells (human, UniProt O75015 17-200); experiment: FACS on FlpinCHO cells
T1 construct: also called FlpinCHO-human CD16b (NA2)
T1 chain: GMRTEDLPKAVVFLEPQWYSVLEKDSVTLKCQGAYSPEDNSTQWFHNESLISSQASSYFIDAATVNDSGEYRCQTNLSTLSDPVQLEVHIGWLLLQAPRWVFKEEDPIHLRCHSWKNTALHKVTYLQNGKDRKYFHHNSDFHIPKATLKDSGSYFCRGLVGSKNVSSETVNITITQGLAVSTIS
How it was run: (§1)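 EC50 values come from fitted MFI curves measured by FACS. Antibody dilutions were bound for 1 hour on ice to CD16b-transfected FlpinCHO cells suspended in PBS with 2% BSA blocking solution.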

[2] = molecular target: T2, human CD16b (NA1), full length, on FlpinCHO cells (human, UniProt O75015 17-200); experiment: FACS on FlpinCHO cells
T2 construct: also called FlpinCHO-human CD16b (NA1)
T2 chain: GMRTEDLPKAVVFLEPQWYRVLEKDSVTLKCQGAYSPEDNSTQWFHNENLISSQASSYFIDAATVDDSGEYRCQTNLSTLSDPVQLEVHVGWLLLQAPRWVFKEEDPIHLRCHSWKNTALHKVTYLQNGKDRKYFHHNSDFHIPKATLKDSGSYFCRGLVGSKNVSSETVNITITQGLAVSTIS
How it was run: as §1

[3] = molecular target: T3, human CD16a (158V), full length, on cells (human, UniProt P08637 17-254); experiment: cell-based or functional assay
[4] = molecular target: human CD16a (158F), full length, on FlpinCHO cells (human, UniProt P08637 17-254); experiment: FACS on FlpinCHO cells
[5] = molecular target: T3, human CD16a (158V), full length, on …; experiment: FACS on FlpinCHO cells
[6] = molecular target: T4, cynomolgus monkey CD16, full length, on FlpinCHO cells (cynomolgus monkey, UniProt Q8SPW2 17-254); experiment: FACS on FlpinCHO cells
T4 construct: also called FlpinCHO-cyno CD16; Flipin CHO-cyno CD16
T4 sequence (Q8SPW2 other isoform, or with tags, fused parts or gaps limits assumed): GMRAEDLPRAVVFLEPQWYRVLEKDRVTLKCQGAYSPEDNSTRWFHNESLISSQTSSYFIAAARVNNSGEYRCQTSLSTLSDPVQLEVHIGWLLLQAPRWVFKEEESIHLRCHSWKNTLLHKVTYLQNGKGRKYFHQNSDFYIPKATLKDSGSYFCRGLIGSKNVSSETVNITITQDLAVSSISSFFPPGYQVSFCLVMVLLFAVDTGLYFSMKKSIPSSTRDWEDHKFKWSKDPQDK
Description: The required cells were scale-up cultured in a T-75 cell culture flask to the logarithmic growth phase. The medium was aspirated, and the cells were washed twice with a PBS buffer and then digested with trypsin. After the digestion was terminated, the cells were washed twice with the PBS buffer. The cells were counted, and then the cell pellet was resuspended with a [PBS+2% (w/w) BSA] blocking solution to 2×10⁶ cells/ml, and added to a 96-well FACS reaction plate at 50 μl/well. […] 50 μl/well of the antibody to be detected was added at different concentrations, and incubated on ice for 1 hour. […] The mixture was centrifuged and washed 5 times with PBS, and FACS (FACS Canto II, purchased from BD Company) was used for detection and result analysis. Data analysis was performed by software (CellQuest) to obtain the mean fluorescence intensity (MFI) of the cells. Then, software (GraphPad Prism8) was used for analysis, data fitting and EC50 value calculation.
Flipin CHO-cyno CD16 cells were subjected to FACS detection and data analysis according to the method of Example 3.1.

Human CD16a (158F)-his = molecular target: T5, Human CD16a (158F)-his (human); experiment: SPR (Biacore), antibody captured on Protein A
T5 construct: entry holds ECD, AVI tag, linker and His tag
How it was run: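 Protein A–captured antibody was probed with CD16-his ECD in HBS-EP+ at 25 °C: five 2-fold dilutions from 200 nM, 240 s at 30 μL/min, dissociation up to 600 s. Glycine pH 1.5 regenerated the chip. Apparent KD came from a double-referenced 1:1 Langmuir fit.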

[7] = molecular target: T6, CD16 on primary human NK cells (human, UniProt P08637 17-254); experiment: FACS on human NK cells, biotinylated antibody, +10 mg/mL human immunoglobulin
T6 construct: whole, on cells; also called resting NK cells

[8] = molecular target: T6, CD16 on primary human NK cells; experiment: FACS on human NK cells, biotinylated antibody

Binder | Maximum mean fluorescence intensity [1] | EC50 [2] [nM] | Maximum mean fluorescence intensity [2] | EC50, activation activity for Jurkat cell [3] [nM] | Maximum fluorescence value [3] | EC50 [4] [nM] | Maximum mean fluorescence intensity [4] | EC50 [5] [nM] | Maximum mean fluorescence intensity [5] | EC50 [6] [nM] | Maximum mean fluorescence intensity [6] | Kd (Human CD16a (158F)-his) [nM] | koff (Human CD16a (158F)-his) [s⁻¹] | kon (Human CD16a (158F)-his) [M⁻¹ s⁻¹] | EC50 [7] [nM] | Maximum mean fluorescence intensity [7] | EC50 [8] [nM] | Maximum mean fluorescence intensity [8] | binding result [1]
B1 | 74000 | 0.95 | 48200 | 0.01 | 122000 | 0.35 | 9340 | 0.41 | 8130 | 0.55 | 18300 | 53.9 | 0.0208 | 385000 | 2.48 | 72100 | 0.65 | 70400 | 
B2 | 69800 | 1.94 | 40600 | 0.02 | 158000 | 0.6 | 8770 | 0.64 | 7550 | 0.83 | 18600 | 27.6 | 0.0164 | 592000 | 1.69 | 38100 | 0.53 | 39300 | 
B3 | 437 | 0.32 | 53000 | 0.02 | 159000 | 0.39 | 9570 | 0.4 | 8890 |  |  | 9.8 | 0.000467 | 47700 | 3.99 | 71400 | 1.34 | 61800 | no binding (tested: 100 nM)
B4 | 296 | 0.18 | 55200 | 0.03 | 176000 | 0.27 | 8890 | 0.23 | 8840 |  |  | 26.9 | 0.00109 | 40300 | 3.66 | 64900 | 1.33 | 53900 | no binding (tested: 100 nM)
